Data as given in article PMC6393306.
Read-outs that look alike come from different tables or passages of the source.

Legend:
GEN1 1-527 (dimer) [1] = target: T1, GEN1 1-527 (dimer) (Homo sapiens, UniProt Q17RS7 1-527); test: EMSA
T1 sequence: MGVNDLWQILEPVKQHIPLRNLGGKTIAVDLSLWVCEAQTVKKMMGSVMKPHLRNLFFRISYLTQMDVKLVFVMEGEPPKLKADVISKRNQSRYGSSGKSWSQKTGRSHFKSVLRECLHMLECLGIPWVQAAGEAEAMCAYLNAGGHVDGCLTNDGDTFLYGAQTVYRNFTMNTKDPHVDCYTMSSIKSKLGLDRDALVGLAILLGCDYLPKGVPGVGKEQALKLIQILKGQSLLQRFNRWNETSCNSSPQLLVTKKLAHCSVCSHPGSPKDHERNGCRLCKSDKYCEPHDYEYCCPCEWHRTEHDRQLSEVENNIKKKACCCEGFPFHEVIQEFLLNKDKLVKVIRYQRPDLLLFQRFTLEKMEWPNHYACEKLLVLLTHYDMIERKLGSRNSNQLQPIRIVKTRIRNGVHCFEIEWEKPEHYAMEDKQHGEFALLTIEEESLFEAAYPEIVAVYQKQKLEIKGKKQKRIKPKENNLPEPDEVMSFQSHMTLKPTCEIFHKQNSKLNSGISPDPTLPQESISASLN

GEN1 1-527 (dimer) [2] = target: T1, GEN1 1-527 (dimer); test: EMSA; remark: listed apart in the source

B1: X0 (Cy5, EMSA) (structured_DNA)
DNA 1: ACGCTGCCGAATTCTACCAGTGCCTTGCTAGGACATCTTTGCCCACCTGCAGGTTCACCC
DNA 2: GGGTGAACCTGCAGGTGGGCAAAGATGTCCATCTGTTGTAATCGTCAAGCTTTATGCCGT
DNA 3: ACGGCATAAAGCTTGACGATTACAACAGATCATGGAGCTGTCTAGAGGATCCGACTATCG
DNA 4: CGATAGTCGGATCCTCTAGACAGCTCCATGTAGCAAGGCACTGGTAGAATTCGGCAGCGT
Kd (GEN1 1-527 (dimer) [1]): 6.23 nM
Kd (GEN1 1-527 (dimer) [2]): 23.4 nM
